Assay results reported in the supplement of paper PMC5998384.

Key:
HeLa Kyoto [1] = experiment: solubility change mitosis vs G1/S (difference of NP-40 vs SDS log2 ratios) (log2 ratio difference); higher = more soluble in mitosis
HeLa Kyoto [2] = experiment: melting temperature (median over replicates), in situ; higher = more thermally stable
HeLa Kyoto [3] = experiment: solubility in G1/S (NP-40 vs SDS abundance) (log2 ratio); higher = more soluble; conditions: cell cycle stage: G1/S
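Wherever melting temperature (median over replicates), in situ is given: HeLa Kyoto cells synchronized by double thymidine or nocodazole block, proteins quantified by TMT10plex mass spectrometry, three independent biological replicates.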
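Wherever solubility change mitosis vs G1/S (difference of NP-40 vs SDS log2 ratios) is given: synchronized HeLa Kyoto cells (double thymidine block for G1/S, nocodazole release for mitosis), protein amounts in NP-40 versus SDS lysates quantified by mass spectrometry, three biological replicates.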
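Wherever solubility in G1/S (NP-40 vs SDS abundance) is given: HeLa Kyoto cells arrested at G1/S by double thymidine block, proteins quantified by TMT10plex mass spectrometry in mild NP-40 versus SDS extracts, three biological replicates.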

MAAQPPRGIRLSALCPKFLHTNSTSHTWPFSAVAELIDNAYDPDVNAKQIWIDKTVINDHICLTFTDNGNGMTSDKLHKMLSFGFSDKVTMNGHVPVGLYGNGFKSGSMRLGKDAIVFTKNGESMSVGLLSQTYLEVIKAEHVVVPIVAFNKHRQMINLAESKASLAAILEHSLFSTEQKLLAELDAIIGKKGTRIIIWNLRSYKNATEFDFEKDKYDIRIPEDLDEITGKKGYKKQERMDQIAPESDYSLRAYCSILYLKPRMQIILRGQKVKTQLVSKSLAYIERDVYRPKFLSKTVRITFGFNCRNKDHYGIMMYHRNRLIKAYEKVGCQLRANNMGVGVVGIIECNFLKPTHNKQDFDYTNEYRLTITALGEKLNDYWNEMKVKKNTEYPLNLPVEDIQKRPDQTWVQCDACLKWRKLPDGMDQLPEKWYCSNNPDPQFRNCEVPEEPEDEDLVHPTYEKTYKKTNKEKFRIRQPEMIPRINAELLFRPTALSTPSFSSPKESVPRRHLSEGTNSYATRLLNNHQVPPQSEPESNSLKRRLSTRSSILNAKNRRLSSQFENSVYKGDDDDEDVIILEENSTPKPAVDHDIDMKSEQSHVEQGGVQVEFVGDSEPCGQTGSTSTSSSRCDQGNTAATQTEVPSLVVKKEETVEDEIDVRNDAVILPSCVEAEAKIHETQETTDKSADDAGCQLQELRNQLLLVTEEKENYKRQCHMFTDQIKVLQQRILEMNDKYVKKETCHQSTETDAVFLLESINGKSESPDHMVSQYQQALEEIERLKKQCSALQHVKAECSQCSNNESKSEMDEMAVQLDDVFRQLDKCSIERDQYKSEVELLEMEKSQIRSQCEELKTEVEQLKSTNQQTATDVSTSSNIEESVNHMDGESLKLRSLRVNVGQLLAMIVPDLDLQQVNYDVDVVDEILGQVVEQMSEISST [MORC3]
solubility change mitosis (log2) (HeLa Kyoto [1]): -0.206
melting temperature (HeLa Kyoto [2]; cell cycle stage: G1/S): 48.7 °C
melting temperature (HeLa Kyoto [2]; cell cycle stage: mitosis): 49.6 °C
solubility in G1/S (log2) (HeLa Kyoto [3]): -0.0527

MAASRSTRVTRSTVGLNGLDESFCGRTLRNRSIAHPEEISSNSQVRSRSPKKRPEPVPIQKGNNNGRTTDLKQQSTRESWVSPRKRGLSSSEKDNIERQAIENCERRQTEPVSPVLKRIKRCLRSEAPNSSEEDSPIKSDKESVEQRSTVVDNDADFQGTKRACRCLILDDCEKREIKKVNVSEEGPLNSAVVEEITGYLAVNGVDDSDSAVINCDDCQPDGNTKQNSIGSYVLQEKSVAENGDTDTQTSMFLDSRKEDSYIDHKVPCTDSQVQVKLEDHKIVTACLPVEHVNQLTTEPATGPFSETQSSLRDSEEEVDVVGDSSASKEQCKENTNNELDTSLESMPASGEPEPSPVLDCVSAQMMSLSEPQEHRYTLRTSPRRAAPTRGSPTKNSSPYRENGQFEENNLSPNETNATVSDNVSQSPTNPGEISQNEKGICCDSQNNGSEGVSKPPSEARLNIGHLPSAKESASQHITEEEDDDPDVYYFESDHVALKHNKDYQRLLQTIAVLEAQRSQAVQDLESLGRHQREALKNPIGFVEKLQKKADIGLPYPQRVVQLPEIVWDQYTHSLGNFEREFKNRKRHTRRVKLVFDKVGLPARPKSPLDPKKDGESLSYSMLPLSDGPEGSSSRPQMIRGRLCDDTKPETFNQLWTVEEQKKLEQLLIKYPPEEVESRRWQKIADELGNRTAKQVASRVQKYFIKLTKAGIPVPGRTPNLYIYSKKSSTSRRQHPLNKHLFKPSTFMTSHEPPVYMDEDDDRSCFHSHMNTAVEDASDDESIPIMYRNLPEYKELLQFKKLKKQKLQQMQAESGFVQHVGFKCDNCGIEPIQGVRWHCQDCPPEMSLDFCDSCSDCLHETDIHKEDHQLEPIYRSETFLDRDYCVSQGTSYNYLDPNYFPANR [ZZZ3]
solubility change mitosis (log2) (HeLa Kyoto [1]): 0.273
melting temperature (HeLa Kyoto [2]; cell cycle stage: G1/S): 48.9 °C
melting temperature (HeLa Kyoto [2]; cell cycle stage: mitosis): 49.1 °C
solubility in G1/S (log2) (HeLa Kyoto [3]): -0.198

MADKPDMGEIASFDKAKLKKTETQEKNTLPTKETIEQEKRSEIS [TMSB10]
solubility change mitosis (log2) (HeLa Kyoto [1]): 0.336
melting temperature (HeLa Kyoto [2]; cell cycle stage: G1/S): 53.8 °C
solubility in G1/S (log2) (HeLa Kyoto [3]): -1.37

MADSSPALSLREGGPRAPRPSAPSPPPRSRSGSESEEAELSLSLARTKTRSYGSTASVRAPLGAGVIERHVEHRVRAGDTLQGIALKYGVTMEQIKRANKLFTNDCIFLKKTLNIPVISEKPLLFNGLNSIDSPENETADNSFSQEEEPVVAGEDLPPPSPQESDVQPVQPEEVSARDFLQRLDLQIKLSTQAAKKLKEESRDEESPYATSLYHS [LYSMD2]
solubility change mitosis (log2) (HeLa Kyoto [1]): -0.0367
melting temperature (HeLa Kyoto [2]; cell cycle stage: G1/S): 52 °C
melting temperature (HeLa Kyoto [2]; cell cycle stage: mitosis): 51.8 °C
solubility in G1/S (log2) (HeLa Kyoto [3]): 0.0316

MADYWKSQPKKFCDYCKCWIADNRPSVEFHERGKNHKENVAKRISEIKQKSLDKAKEEEKASKEFAAMEAAALKAYQEDLKRLGLESEILEPSITPVTSTIPPTSTSNQQKEKKEKKKRKKDPSKGRWVEGITSEGYHYYYDLISGASQWEKPEGFQGDLKKTAVKTVWVEGLSEDGFTYYYNTETGESRWEKPDDFIPHTSDLPSSKVNENSLGTLDESKSSDSHSDSDGEQEAEEGGVSTETEKPKIKFKEKNKNSDGGSDPETQKEKSIQKQNSLGSNEEKSKTLKKSNPYGEWQEIKQEVESHEEVDLELPSTENEYVSTSEADGGGEPKVVFKEKTVTSLGVMADGVAPVFKKRRTENGKSRNLRQRGDDQ [WBP4]
solubility change mitosis (log2) (HeLa Kyoto [1]): 0.763
melting temperature (HeLa Kyoto [2]; cell cycle stage: mitosis): 54.7 °C
solubility in G1/S (log2) (HeLa Kyoto [3]): -0.703

MAEAGTGEPSPSVEGEHGTEYDTLPSDTVSLSDSDSDLSLPGGAEVEALSPMGLPGEEDSGPDEPPSPPSGLLPATVQPFHLRGMSSTFSQRSRDIFDCLEGAARRAPSSVAHTSMSDNGGFKRPLAPSGRSPVEGLGRAHRSPASPRVPPVPDYVAHPERWTKYSLEDVTEVSEQSNQATALAFLGSQSLAAPTDCVSSFNQDPSSCGEGRVIFTKPVRGVEARHERKRVLGKVGEPGRGGLGNPATDRGEGPVELAHLAGPGSPEAEEWGSHHGGLQEVEALSGSVHSGSVPGLPPVETVGFHGSRKRSRDHFRNKSSSPEDPGAEV [TSSC4]
solubility change mitosis (log2) (HeLa Kyoto [1]): 0.0166
melting temperature (HeLa Kyoto [2]; cell cycle stage: G1/S): 51 °C
melting temperature (HeLa Kyoto [2]; cell cycle stage: mitosis): 50.5 °C
solubility in G1/S (log2) (HeLa Kyoto [3]): 0.167

MAENREPRGAVEAELDPVEYTLRKRLPSRLPRRPNDIYVNMKTDFKAQLARCQKLLDGGARGQNACSEIYIHGLGLAINRAINIALQLQAGSFGSLQVAANTSTVELVDELEPETDTREPLTRIRNNSAIHIRVFRVTPK [POP7]
solubility change mitosis (log2) (HeLa Kyoto [1]): -0.0753
melting temperature (HeLa Kyoto [2]; cell cycle stage: mitosis): 54.9 °C
solubility in G1/S (log2) (HeLa Kyoto [3]): 0.19

MAERGRKRPCGPGEHGQRIEWRKWKQQKKEEKKKWKDLKLMKKLERQRAQEEQAKRLEEEEAAAEKEDRGRPYTLSVALPGSILDNAQSPELRTYLAGQIARACAIFCVDEIVVFDEEGQDAKTVEGEFTGVGKKGQACVQLARILQYLECPQYLRKAFFPKHQDLQFAGLLNPLDSPHHMRQDEESEFREGIVVDRPTRPGHGSFVNCGMKKEVKIDKNLEPGLRVTVRLNQQQHPDCKTYHGKVVSSQDPRTKAGLYWGYTVRLASCLSAVFAEAPFQDGYDLTIGTSERGSDVASAQLPNFRHALVVFGGLQGLEAGADADPNLEVAEPSVLFDLYVNTCPGQGSRTIRTEEAILISLAALQPGLIQAGARHT [C9ORF114]
solubility change mitosis (log2) (HeLa Kyoto [1]): 0.696
melting temperature (HeLa Kyoto [2]; cell cycle stage: mitosis): 51.8 °C
solubility in G1/S (log2) (HeLa Kyoto [3]): -1.68

MAEYLASIFGTEKDKVNCSFYFKIGACRHGDRCSRLHNKPTFSQTIALLNIYRNPQNSSQSADGLRCAVSDVEMQEHYDEFFEEVFTEMEEKYGEVEEMNVCDNLGDHLVGNVYVKFRREEDAEKAVIDLNNRWFNGQPIHAELSPVTDFREACCRQYEMGECTRGGFCNFMHLKPISRELRRELYGRRRKKHRSRSRSRERRSRSRDRGRGGGGGGGGGGGGRERDRRRSRDRERSGRF [U2AF1]
solubility change mitosis (log2) (HeLa Kyoto [1]): 0.342
melting temperature (HeLa Kyoto [2]; cell cycle stage: G1/S): 46.8 °C
melting temperature (HeLa Kyoto [2]; cell cycle stage: mitosis): 48.2 °C
solubility in G1/S (log2) (HeLa Kyoto [3]): -0.457
